Laboratory results reported in article doi:10.1101/580712.

Target: human Macrophage Expressed Gene-1 (MPEG-1) soluble ectodomain, wild type (human) (UniProt Q2M385)
Test: cryo-EM structure

Substance: human Macrophage Expressed Gene-1 (MPEG-1) soluble ectodomain, wild type (from UniProt Q2M385 17-653) (domain or fragment)
- stoichiometry N (subunits per ring): 16
